Laboratory results published in IntAct's records for PubMed 18354501.

B1: General transcription factor IIE subunit 1 (Homo sapiens), P29083 (parent)
chain: MADPDVLTEVPAALKRLAKYVIRGFYGIEHALALDILIRNSCVKEEDMLELLKFDRKQLRSVLNNLKGDKFIKCRMRVETAADGKTTRHNYYFINYRTLVNVVKYKLDHMRRRIETDERDSTNRASFKCPVCSSTFTDLEANQLFDPMTGTFRCTFCHTEVEEDESAMPKKDARTLLARFNEQIEPIYALLRETEDVNLAYEILEPEPTEIPALKQSKDHAATTAGAASLAGGHHREAWATKGPSYEDLYTQNVVINMDDQEDLHRASLEGKSAKERPIWLRESTVQGAYGSEDMKEGGIDMDAFQEREEGHAGPDDNEEVMRALLIHEKKTSSAMAGSVGAAAPVTAANGSDSESETSESDDDSPPRPAAVAVHKREEDEEEDDEFEEVADDPIVMVAGRPFSYSEVSQRPELVAQMTPEEKEAYIAMGQRMFEDLFE

Variants of: B1
Conditions: with tf2h1_human GTF2H1, P32780
tf2h1_human GTF2H1, P32780, sequence (P32780 whole entry): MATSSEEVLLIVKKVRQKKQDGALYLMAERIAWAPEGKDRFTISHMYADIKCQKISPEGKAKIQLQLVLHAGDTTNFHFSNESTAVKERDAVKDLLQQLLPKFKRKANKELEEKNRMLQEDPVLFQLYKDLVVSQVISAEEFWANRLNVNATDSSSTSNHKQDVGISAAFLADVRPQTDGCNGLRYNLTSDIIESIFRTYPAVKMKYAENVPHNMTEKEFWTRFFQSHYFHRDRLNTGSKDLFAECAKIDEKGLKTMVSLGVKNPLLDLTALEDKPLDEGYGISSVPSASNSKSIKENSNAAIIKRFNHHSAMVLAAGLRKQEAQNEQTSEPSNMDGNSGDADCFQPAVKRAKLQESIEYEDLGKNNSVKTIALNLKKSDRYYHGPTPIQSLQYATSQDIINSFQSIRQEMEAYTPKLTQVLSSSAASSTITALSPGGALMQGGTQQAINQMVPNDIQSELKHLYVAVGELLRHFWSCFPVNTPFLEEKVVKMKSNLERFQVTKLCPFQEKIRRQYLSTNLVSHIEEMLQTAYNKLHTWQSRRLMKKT

Variant	effect of a mutation on the interaction
MADPDVLTEVPAALKRLAKYVIRGFYGIEHALALDILIRNSCVKEEDMLELLKFDRKQLRSVLNNLKGDKFIKCRMRVETAADGKTTRHNYYFINYRTLVNVVKYKLDHMRRRIETDERDSTNRASFKCPVCSSTFTDLEANQLFDPMTGTFRCTFCHTEVEEDESAMPKKDARTLLARFNEQIEPIYALLRETEDVNLAYEILEPEPTEIPALKQSKDHAATTAGAASLAGGHHREAWATKGPSYEDLYTQNVVINMDDQEDLHRASLEGKSAKERPIWLRESTVQGAYGSEDMKEGGIDMDAFQEREEGHAGPDDNEEVMRALLIHEKKTSSAMAGSVGAAAPVTAANGSDSESETSESDDDSPPRPAAVAVHKREEDEEEDDEFEEAADDPIVMVAGRPFSYSEVSQRPELVAQMTPEEKEAYIAMGQRMFEDLFE [V390A]	disrupting interaction

Variants of: B1
Conditions: with tf2h1_human GTF2H1, P32780
Remark: another data set of the same source

Variant	effect of a mutation on the interaction
MADPDVLTEVPAALKRLAKYVIRGFYGIEHALALDILIRNSCVKEEDMLELLKFDRKQLRSVLNNLKGDKFIKCRMRVETAADGKTTRHNYYFINYRTLVNVVKYKLDHMRRRIETDERDSTNRASFKCPVCSSTFTDLEANQLFDPMTGTFRCTFCHTEVEEDESAMPKKDARTLLARFNEQIEPIYALLRETEDVNLAYEILEPEPTEIPALKQSKDHAATTAGAASLAGGHHREAWATKGPSYEDLYTQNVVINMDDQEDLHRASLEGKSAKERPIWLRESTVQGAYGSEDMKEGGIDMDAFQEREEGHAGPDDNEEVMRALLIHEKKTSSAMAGSVGAAAPVTAANGSDSESETSESDDDSPPRPAAVAVHKREEDEEEDDEAEEVADDPIVMVAGRPFSYSEVSQRPELVAQMTPEEKEAYIAMGQRMFEDLFE [F387A]	disrupting interaction
